# According to IntAct's records for PubMed 21293379:
# B1: Histone-lysine N-methyltransferase NSD2 (Homo sapiens), O96028-1 (parent)
# chain: MEFSIKQSPLSVQSVVKCIKMKQAPEILGSANGKTPSCEVNRECSVFLSKAQLSSSLQEGVMQKFNGHDALPFIPADKLKDLTSRVFNGEPGAHDAKLRFESQEMKGIGTPPNTTPIKNGSPEIKLKITKTYMNGKPLFESSICGDSAADVSQSEENGQKPENKARRNRKRSIKYDSLLEQGLVEAALVSKISSPSDKKIPAKKESCPNTGRDKDHLLKYNVGDLVWSKVSGYPWWPCMVSADPLLHSYTKLKGQKKSARQYHVQFFGDAPERAWIFEKSLVAFEGEGQFEKLCQESAKQAPTKAEKIKLLKPISGKLRAQWEMGIVQAEEAASMSVEERKAKFTFLYVGDQLHLNPQVAKEAGIAAESLGEMAESSGVSEEAAENPKSVREECIPMKRRRRAKLCSSAETLESHPDIGKSTPQKTAEADPRRGVGSPPGRKKTTVSMPRSRKGDAASQFLVFCQKHRDEVVAEHPDASGEEIEELLRSQWSLLSEKQRARYNTKFALVAPVQAEEDSGNVNGKKRNHTKRIQDPTEDAEAEDTPRKRLRTDKHSLRKRDTITDKTARTSSYKAMEAASSLKSQAATKNLSDACKPLKKRNRASTAASSALGFSKSSSPSASLTENEVSDSPGDEPSESPYESADETQTEVSVSSKKSERGVTAKKEYVCQLCEKPGSLLLCEGPCCGAFHLACLGLSRRPEGRFTCSECASGIHSCFVCKESKTDVKRCVVTQCGKFYHEACVKKYPLTVFESRGFRCPLHSCVSCHASNPSNPRPSKGKMMRCVRCPVAYHSGDACLAAGCSVIASNSIICTAHFTARKGKRHHAHVNVSWCFVCSKGGSLLCCESCPAAFHPDCLNIEMPDGSWFCNDCRAGKKLHFQDIIWVKLGNYRWWPAEVCHPKNVPPNIQKMKHEIGEFPVFFFGSKDYYWTHQARVFPYMEGDRGSRYQGVRGIGRVFKNALQEAEARFREIKLQREARETQESERKPPPYKHIKVNKPYGKVQIYTADISEIPKCNCKPTDENPCGFDSECLNRMLMFECHPQVCPAGEFCQNQCFTKRQYPETKIIKTDGKGWGLVAKRDIRKGEFVNEYVGELIDEEECMARIKHAHENDITHFYMLTIDKDRIIDAGPKGNYSRFMNHSCQPNCETLKWTVNGDTRVGLFAVCDIPAGTELTFNYNLDCLGNEKTVCRCGASNCSGFLGDRPKTSTTLSSEEKGKKTKKKTRRRRAKGEGKRQSEDECFRCGDGGQLVLCDRKFCTKAYHLSCLGLGKRPFGKWECPWHHCDVCGKPSTSFCHLCPNSFCKEHQDGTAFSCTPDGRSYCCEHDLGAASVRSTKTEKPPPEPGKPKGKRRRRRGWRRVTEGK
# Variants of: B1
# Settings: with mdc1_human MDC1, Q14676
# Sequence of mdc1_human MDC1, Q14676 (Q14676 whole entry): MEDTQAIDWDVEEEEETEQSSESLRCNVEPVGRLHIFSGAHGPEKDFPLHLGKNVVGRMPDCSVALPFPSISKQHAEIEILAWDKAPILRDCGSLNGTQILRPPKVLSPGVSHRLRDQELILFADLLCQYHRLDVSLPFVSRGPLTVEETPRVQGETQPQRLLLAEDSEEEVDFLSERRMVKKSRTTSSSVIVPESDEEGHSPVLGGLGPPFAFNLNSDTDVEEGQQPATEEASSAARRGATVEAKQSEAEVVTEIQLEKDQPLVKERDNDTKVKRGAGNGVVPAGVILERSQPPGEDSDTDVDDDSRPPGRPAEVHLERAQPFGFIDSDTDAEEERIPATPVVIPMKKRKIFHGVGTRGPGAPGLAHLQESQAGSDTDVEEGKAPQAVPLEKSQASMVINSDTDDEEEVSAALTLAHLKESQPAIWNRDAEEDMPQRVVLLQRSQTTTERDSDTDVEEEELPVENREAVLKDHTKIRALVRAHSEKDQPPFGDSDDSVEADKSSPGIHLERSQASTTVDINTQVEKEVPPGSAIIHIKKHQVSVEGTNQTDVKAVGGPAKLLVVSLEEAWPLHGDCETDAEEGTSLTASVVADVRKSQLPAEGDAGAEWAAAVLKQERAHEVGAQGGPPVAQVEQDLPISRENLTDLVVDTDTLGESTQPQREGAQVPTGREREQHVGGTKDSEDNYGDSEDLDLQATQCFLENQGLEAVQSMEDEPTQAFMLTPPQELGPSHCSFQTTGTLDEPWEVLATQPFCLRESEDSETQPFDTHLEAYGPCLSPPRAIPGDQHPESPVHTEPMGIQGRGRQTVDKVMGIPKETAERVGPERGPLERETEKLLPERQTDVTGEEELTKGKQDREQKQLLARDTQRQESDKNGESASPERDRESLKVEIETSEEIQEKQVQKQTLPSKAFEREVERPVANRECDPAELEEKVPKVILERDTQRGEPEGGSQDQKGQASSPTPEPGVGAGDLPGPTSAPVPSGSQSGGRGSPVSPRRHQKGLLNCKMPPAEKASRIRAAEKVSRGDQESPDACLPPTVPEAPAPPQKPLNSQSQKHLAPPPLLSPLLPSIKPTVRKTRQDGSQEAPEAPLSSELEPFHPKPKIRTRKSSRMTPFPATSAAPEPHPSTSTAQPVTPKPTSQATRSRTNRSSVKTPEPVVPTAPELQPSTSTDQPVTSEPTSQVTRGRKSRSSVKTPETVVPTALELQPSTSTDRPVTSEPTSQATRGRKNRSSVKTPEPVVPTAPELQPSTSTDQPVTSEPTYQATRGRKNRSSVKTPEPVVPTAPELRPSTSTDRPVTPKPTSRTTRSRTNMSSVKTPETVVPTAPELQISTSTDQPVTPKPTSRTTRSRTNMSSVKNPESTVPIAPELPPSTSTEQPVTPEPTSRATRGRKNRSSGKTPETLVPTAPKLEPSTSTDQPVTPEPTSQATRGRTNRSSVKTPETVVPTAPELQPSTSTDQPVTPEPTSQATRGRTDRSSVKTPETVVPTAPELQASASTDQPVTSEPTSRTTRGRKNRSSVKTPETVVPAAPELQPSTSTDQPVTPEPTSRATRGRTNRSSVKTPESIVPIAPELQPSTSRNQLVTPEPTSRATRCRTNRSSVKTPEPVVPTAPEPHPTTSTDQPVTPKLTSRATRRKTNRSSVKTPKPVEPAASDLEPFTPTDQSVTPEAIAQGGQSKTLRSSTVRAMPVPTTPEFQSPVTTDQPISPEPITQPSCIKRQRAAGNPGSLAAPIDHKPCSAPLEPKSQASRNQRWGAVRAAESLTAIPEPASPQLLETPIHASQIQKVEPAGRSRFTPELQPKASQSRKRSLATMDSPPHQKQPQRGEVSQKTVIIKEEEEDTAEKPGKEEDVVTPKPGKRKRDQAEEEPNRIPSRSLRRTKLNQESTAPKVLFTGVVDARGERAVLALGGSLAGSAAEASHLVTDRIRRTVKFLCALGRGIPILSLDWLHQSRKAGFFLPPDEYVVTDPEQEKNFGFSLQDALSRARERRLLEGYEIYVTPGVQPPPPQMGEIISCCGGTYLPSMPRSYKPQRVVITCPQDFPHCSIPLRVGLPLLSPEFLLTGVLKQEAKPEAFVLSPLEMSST
row,effect of a mutation on the interaction,Variant
1,disrupting interaction,S102A
